This passage reports amyloid nucleation score results from the supplement of paper PMC12042874.

± gives the uncertainty stated by the source.

The data set is described as follows: amyloid nucleation score (Sup35N fusion, yeast selection) (log enrichment); library NNK1; higher = more nucleation; inactive = no reads after selection. The method in brief: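 Peptides of 20 random codons fused to Sup35N were expressed in psi-negative yeast, induced 24 hours with 100 μM copper sulfate, then grown 7 days at 30°C on medium lacking adenine and uracil. Input and output plasmid inserts were Illumina-sequenced. Nucleation score is the DiMSum log enrichment of output over input reads, centred on the mode score of non-aggregating sequences, excluding sequences with under 100 input reads. Random libraries had three technical output replicates.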
LGPLYQFDICGKGTGYGDHE gave an amyloid nucleation score of -0.673 ± 0.71.
For PRVLHTSVGFCLFNEYCSTT, the amyloid nucleation score worked out at 2.45 ± 0.18.
In the case of GLRYSVYNCFLVCRGRREWP it was 5.54 ± 0.057.
STFCTSAISMSIGSIIVGLS: the amyloid nucleation score was 0.043 ± 0.62.
For SRLWSSCHCHLAAYSVIHDD the value was “inactive”; for LLYIRVADSRPGDLRWLSEV, -0.106 ± 0.5.
In the case of TRYPLNISEVFRFDFPNRIP it was -1.32 ± 2.4.
Substance DSNATTHVRMKVSLTGRFLR returned an amyloid nucleation score of 4.8 ± 0.056.
For VSLLKGRVAMSRG the value was 1.1 ± 0.38; for TMLTWASRRLDYFSGALCFM, -0.119 ± 0.45; for RCGCRRVVFDGFIGIGALRA, 0.298 ± 0.6.
Substance DVLLFL registered an amyloid nucleation score of -0.779 ± 1.3.
In the case of QFSYTRIEVVSDVHLVNVVN it was 0.373 ± 0.3.
For IRPLIFVIGHN the value was 0.794 ± 0.5; for RPILLSSLPIHSERMWSTSL, -0.257 ± 1.4; for TFACGKYVVPFCIYVDR, -0.059 ± 0.34.
In turn, AGIIVWN registered an amyloid nucleation score of -0.087 ± 0.31.
For NRLNGNLPLNHR the value was 0.014 ± 0.51; for AVYGAECDCAWFTPYSVVAD, 0.19 ± 0.36.
TKIVFIVL: the amyloid nucleation score is 6.02 ± 0.084.
For the substance FIVGTFLHENASLRFRIHKA, the amyloid nucleation score is -0.011 ± 0.35.
For LKPLRKFRSNVNMR, the amyloid nucleation score result is “inactive”.
On to NYVYPRVLYSFQVLLYPSKD, for which the amyloid nucleation score was 0.704 ± 0.49.
For NQYMIQGKVSRSNIMCLGMR the value was -0.067 ± 0.21; for LFRFDYCLPGRFNRFWPDIS, 1.03 ± 0.18.
In the case of ILYMLPILRKLVSFEFNYIC it was 0.117 ± 0.21; in that of FLRKHHSIMMVFMRIQGLRM, -1.72 ± 1.7.
WGQTWDVFY came in with an amyloid nucleation score of 0.916 ± 0.46.
For LFWCVSVNRDIKIQCDRTLF the value was 1.13 ± 0.51; for SMTRIANSMINVFGENPSNS, -0.267 ± 0.69.
In the case of LISVCRFLAIILFRTFA it was 0.365 ± 0.69; in that of WIVSFMAIRH, 1.51 ± 0.25.
In the case of VMWRFKSVTCI it was -0.393 ± 0.33; in that of YWGYKTGQDCFSHSIRRRIL, -0.105 ± 0.85.
Regarding YVRDGVPSWMQCYLRGSFGG, the amyloid nucleation score is 0.208 ± 0.72.
Substance TRMRSSKSSVA had an amyloid nucleation score of 0.532 ± 0.42.
GGELKARNKREGNQSSA registered an amyloid nucleation score of 0.058 ± 0.72.
The substance RMNGLSGRLSTAWQFMYMWC gave an amyloid nucleation score of -0.153 ± 0.34.
As for WRAYFACYNILESAFLLVQL, the amyloid nucleation score entry was “inactive”.
In the case of NMRTNQDKSCGCCQLPVQAG it was -0.119 ± 1.2; in that of FGFLLHGDDDQEGIVTGRGG, 0.384 ± 0.76; in that of AVMCYDNTSSNVSFN, -0.279 ± 0.28.
For KWVDEECFDFMKGGF the value was -0.756 ± 0.73; for SFSWLSRMTR, 2 ± 0.1.
For the substance LFLSWDSYPSLSKRTV, the amyloid nucleation score came to 0.281 ± 0.42.
In turn, TRQWGHFSLYGESYFSCI displayed an amyloid nucleation score of 0.187 ± 0.63.
As to GGSFKGYSLIV, the amyloid nucleation score was 0.678 ± 0.66.
On to LEAKSAGRVACQHGVALRVG, for which the amyloid nucleation score stood at 0.674 ± 0.47.
For CNITWSFSDRLWY the value was 0.476 ± 0.27; for GYRSIGASGTQDLSQVVLNK, 0.901 ± 0.98; for ANISSGKFVRGSCENLARLR, -0.805 ± 0.59.
SIPFGIIMETCENLTDFAVY gave an amyloid nucleation score of -0.74 ± 0.85.
The substance WVPGITVKMRYGPESIVDWR registered an amyloid nucleation score of 0.565 ± 1.1.
SYSEYPHVEYLLLFSMTQWN: the amyloid nucleation score came to 0.43 ± 0.34.
In turn, VRSLARNG returned an amyloid nucleation score of 0.947 ± 0.7.
The substance FSVGYDNGMDNM registered an amyloid nucleation score of 0.426 ± 0.29.
On to QRISWDFSWCRASWMPNLR, for which the amyloid nucleation score came to 0.062 ± 0.34.
For VSNRTVNDGYGSSGAALCLR the value was 0.099 ± 0.44.
In the case of HTQYSSRYGFMCSRWIVSGV it was 0.684 ± 0.7; in that of NGGAPSGNSGFKYSCKGWFV, -0.452 ± 0.52.
For NIPQLVVFKWMLSTC the value was -0.047 ± 1.1; for YILWNHNGLNGWGFAGITLF, -0.994 ± 0.51; for SGCVQLM, 1.32 ± 0.74.
On to NYLHFSRRLALWRC, for which the amyloid nucleation score entry is “inactive”.
For VDHTSMWCGFLYTSCLGPDF the value was -0.758 ± 1.2; for LCGGWLMGAGRFDGR, 0.862 ± 0.54; for TMVCKGSCFWSSWSITFPLQ, “inactive”.
For GGKESLFRCFADRSCFMYI the value was -0.724 ± 2.4.
In the case of SFLLNPTADMNHCFGDVFGG it was -1.44 ± 1.4; in that of APLEFWRGTVVAWLWYLCPF, 0.303 ± 0.41; in that of LNFWGACLIHYSWQNTIVLV, 2.28 ± 0.16.
The substance KNFWKGVLYSIRCHNQWNVG displayed an amyloid nucleation score of 5.41 ± 0.092.
In the case of TCVDAVVLM it was 0.063 ± 0.62.
For LRTRDQSGFSAVIYSKNPRA, the amyloid nucleation score was determined as 0.106 ± 0.51.
Turning to TSVSNMFENPKNLSLVPTVG, the amyloid nucleation score was found to be 1.94 ± 0.5.
In turn, SGGMFQVICLV gave an amyloid nucleation score of 0.263 ± 0.34.
In the case of SNESILFVGSPVTRFIQYVD, the amyloid nucleation score entry was “inactive”.
Take FFRTSLCYDLVNSDEVDIIV: the amyloid nucleation score was found to be 0.411 ± 0.51.
In the case of MVGRVARRVTMSVCSAVSGV it was -0.237 ± 0.45; in that of FRFRLGNFGLRFRGYPERII, 0.405 ± 0.3; in that of FVKSKGWVCAGFLYIASL, 0.53 ± 0.75.
For VSCQHTVFKVICSYLPHLCK the value was 0.666 ± 0.59.
In the case of WRLSLYPQPLGLWAEATLDT it was -0.209 ± 0.53; in that of NYIEPQG, 0.296 ± 0.97; in that of SFDGDRLNVVMAQWL, -0.357 ± 0.58.
Take GELLKMNVQIRYMGIWVNIL: the amyloid nucleation score was found to be 3.46 ± 0.18.
The substance LLGDKLV displayed an amyloid nucleation score of -0.096 ± 0.46.
In the case of DLCPSGGVSDLCNPYGCFTL it was -0.427 ± 0.71; in that of LKEFISCGPGCINWLHGKDW, -0.519 ± 0.37.
In the case of FELQEYCFD it was 0.923 ± 0.5; in that of EYLSA, 0.403 ± 0.55; in that of PYYRLHANLPDEKRSTAILI, -0.378 ± 0.55.
FDPCYTHALWLFGDVKARCM showed an amyloid nucleation score of -0.083 ± 0.37.
In the case of FMYWSIHDTIVLTWHDGSSL it was -0.036 ± 0.65; in that of NLVFW, 0.562 ± 0.69.
In the case of VVTVLGVGLDSSSSGWWFVA it was 0.168 ± 0.46.
In the case of PECTNDKVY it was 0.541 ± 0.52; in that of CNILVTRFSNSREFNRCTWR, “inactive”.
As to HGPHYLLITGRGTRDNQSRD, the amyloid nucleation score was -0.721 ± 0.65.
For TNKGFQYSGLVYCCWVRYLF the value was “inactive”; for TNMRTWFSGSFTILKCTDFQ, 0.744 ± 0.74.
In the case of YMCGLSECAS it was 5 ± 0.062; in that of TAVTCLL, -0.175 ± 1.2.
SVRVI returned an amyloid nucleation score of 0.105 ± 0.73.
For TENCDLCKQLAAVLC the value was -0.812 ± 0.93.
The substance GGVVCRVKGKNRFPLVSWQF returned an amyloid nucleation score of -0.565 ± 0.61.
For the substance VALID, the amyloid nucleation score was -0.215 ± 1.7.
Take TVAFWF: the amyloid nucleation score entry was “inactive”.
For MYTSDHNSGVASMCIVVGFF, the amyloid nucleation score was 3.76 ± 0.08.
Substance MSGAESYLHLDLCRVTGIAS had an amyloid nucleation score of -0.24 ± 0.35.
In the case of LYNIVCLSDIL it was 5.88 ± 0.061; in that of CIISNVCTRVGGKMGSYGYS, 0.133 ± 0.4.
For RCCLVMCWCLCKNYSN the value was 5.38 ± 0.049; for QDRHYRNAKGSNSCYIRRKS, 1 ± 0.35.
MMLSVCISKLTFLVIRDLLV yielded an amyloid nucleation score of 0.459 ± 0.23.
For TGSMVFLMVVAGSCLFGLSE the value was 0.652 ± 0.24; for RASKFGLLGHMAYSIYHYVM, -0.974 ± 1.7.
In turn, GSCVWFSGNRVPTFWWSGDS had an amyloid nucleation score of -0.046 ± 0.31.
For SRLTFVVVWDSSVVHIRMTG the value was 3.46 ± 0.12; for MVFFTCSEMDVYMWRGYFNY, -0.727 ± 0.28; for MITSDKIGSQWLQCRLKVAC, -0.43 ± 0.53.
As to VLVFIFDSTVSI, the amyloid nucleation score was 8.236 ± 0.046.
VVCNCGHGIKNIC: the amyloid nucleation score was -1.08 ± 1.6.
In the case of NLVALNLSNTFPDDV it was 0.04 ± 0.82; in that of VRALND, -0.581 ± 0.3.
In the case of LDCINRERYIHFMR it was 1.92 ± 0.5; in that of SLPITLLPKGFATKVFVRVC, -0.127 ± 0.72.
In the case of SLVFQDRRYLTAFLGFVLWL it was -0.476 ± 0.51.
Substance VVNSSS had an amyloid nucleation score of 0.537 ± 0.85.
On to FLKNEHSYTGWCFSTWPVRY, for which the amyloid nucleation score came out at 1.95 ± 0.29.
For SDMSPNTGFG the value was 0.073 ± 0.8; for ICICLMLSVIGSSSHVLLDW, 1.08 ± 0.72.
In the case of ICLYGACYFGVVWSKGGPGK it was -0.634 ± 0.32; in that of GYACYFSSSDYCWVAPHCGL, 1.01 ± 0.14.
For KMLVGHS the value was 0.087 ± 0.83; for YAKHCAEGYGFLGWSLWAVR, 0.106 ± 0.34.
The substance LCRILGSSPVHNLWLWGHGY showed an amyloid nucleation score of -0.363 ± 1.4.
In the case of LAWIGFRYRDGMKYGVHWGR it was -0.522 ± 1.2; in that of MIMDVVKGFVFRSSINSKRY, 3.27 ± 0.088; in that of SVKTLLVRGILSLSIGFYMS, 0.294 ± 0.52.
